Results from patent US6365161 (Bristol-Myers Squibb, dated 2002).

Target: T1, carcinoembryonic antigen (CEA) (UniProt P06731 35-685)
T1 sequence (looked up): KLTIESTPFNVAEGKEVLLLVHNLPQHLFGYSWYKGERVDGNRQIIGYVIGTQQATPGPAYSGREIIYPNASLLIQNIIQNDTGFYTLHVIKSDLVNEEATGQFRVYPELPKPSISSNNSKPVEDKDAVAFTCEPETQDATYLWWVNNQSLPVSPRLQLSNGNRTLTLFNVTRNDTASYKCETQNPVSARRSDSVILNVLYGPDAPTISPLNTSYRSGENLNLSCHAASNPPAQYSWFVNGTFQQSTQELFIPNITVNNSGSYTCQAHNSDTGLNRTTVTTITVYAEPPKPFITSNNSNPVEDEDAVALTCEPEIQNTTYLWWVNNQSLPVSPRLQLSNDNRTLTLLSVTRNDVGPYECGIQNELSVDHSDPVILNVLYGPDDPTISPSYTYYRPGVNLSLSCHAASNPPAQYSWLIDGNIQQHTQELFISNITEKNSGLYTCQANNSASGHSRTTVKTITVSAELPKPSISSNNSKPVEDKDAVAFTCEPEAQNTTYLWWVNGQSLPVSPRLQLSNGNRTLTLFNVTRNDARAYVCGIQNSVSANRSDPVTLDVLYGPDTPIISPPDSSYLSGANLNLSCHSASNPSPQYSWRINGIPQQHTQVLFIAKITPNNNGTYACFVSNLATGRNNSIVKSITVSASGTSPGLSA
Experiment: bispecific ELISA, plates coated with CEA, detection with soluble FcγRI/IgM-µ
Source text: ELISA plates are coated with CEA and the blocked with 5% PBA.

B1: single chain antibody H22 encoded by construct 225 (scFv)
scFv: DIQLVESGGGVVQPGRSLRLSCSSSGFIFSDNYMYWVRQAPGKGLEWVATISDGGSYTYYPDSVKGRFTISRDNSKNTLFLQMDSLRPEDTGVYFCARGYYRYEGAMDYWGQGTPVTVSSGGGGSGGGGSGGGGSDIQLTQSPSSLSASVGDRVTITCKSSQSVLYSSNQKNYLAWYQQKPGKAPKLLIYWASTRESGVPSRFSGSGSGTDFTFTISSLQPEDIATYYCHQYLSSWTFGQGTKVEIKSSCSSGGGGSDIAAAEQKLISEEDLNGAAHHHHHH
notes: also called single chain H22 antibody
binding result: no binding
